Reference: the Human Domainome abundance scans (Beltran et al. 2025)
± gives the uncertainty stated by the source.

B1: Heterogeneous nuclear ribonucleoprotein U-like protein 2, residues 1 to 40; numbered along this chain, Q1KMD3 (parent)
chain: MEVKRLKVTELRSELQRRGLDSRGLKVDLAQRLQEALDAE

Variants of: B1
Assay: abundance fitness (aPCA) (normalised: wild type 0, dead -1); higher = more abundant; growth selection in yeast, the domain comes from the species named
Details: Homo sapiens

Row | Variant | abundance fitness
1 | A30P | -0.718 ± 0.15
2 | A30Q | 0.106 ± 0.09
3 | A30R | 0.046 ± 0.051
4 | A30S | -0.165 ± 0.069
5 | A30T | -0.058 ± 0.077
6 | A30V | 0.011 ± 0.059
7 | A30W | -0.236 ± 0.056
8 | Q31A | 0.032 ± 0.058
9 | Q31C | -0.016 ± 0.083
10 | Q31E | 0.141 ± 0.078
11 | Q31F | -0.197 ± 0.079
12 | Q31G | -0.055 ± 0.049
13 | Q31H | -0.418 ± 0.13
14 | Q31I | 0.012 ± 0.077
15 | Q31K | 0.112 ± 0.067
16 | Q31L | 0.009 ± 0.054
17 | Q31M | -0.041 ± 0.07
18 | Q31N | 0.252 ± 0.13
19 | Q31P | -0.121 ± 0.062
20 | Q31S | 0.058 ± 0.057
21 | Q31T | 0.085 ± 0.069
22 | Q31V | -0.003 ± 0.055
23 | Q31W | -0.176 ± 0.054
24 | R32A | -0.394 ± 0.062

Row | Variant | abundance fitness
25 | R32C | -0.441 ± 0.066
26 | R32D | -0.076 ± 0.1
27 | R32E | -0.221 ± 0.077
28 | R32F | -1.02 ± 0.17
29 | R32G | -0.339 ± 0.051
30 | R32H | -0.399 ± 0.076
31 | R32I | -1.08 ± 0.2
32 | R32L | -0.854 ± 0.063
33 | R32M | -0.567 ± 0.067
34 | R32N | -0.395 ± 0.089
35 | R32P | -0.402 ± 0.087
36 | R32Q | -0.262 ± 0.08
37 | R32S | -0.371 ± 0.065
38 | R32T | -0.405 ± 0.073
39 | R32V | -0.643 ± 0.057
40 | R32W | -1 ± 0.081
41 | R32Y | -0.191 ± 0.33
42 | L33C | -0.403 ± 0.082
43 | L33D | -0.239 ± 0.071
44 | L33E | -0.085 ± 0.059
45 | L33F | -0.733 ± 0.15
46 | L33G | -0.189 ± 0.048
47 | L33H | -0.467 ± 0.099
48 | L33I | -0.843 ± 0.15

Row | Variant | abundance fitness
49 | L33K | -0.164 ± 0.092
50 | L33M | -0.239 ± 0.063
51 | L33N | -0.384 ± 0.097
52 | L33P | -0.06 ± 0.064
53 | L33Q | -0.269 ± 0.074
54 | L33R | -0.368 ± 0.048
55 | L33S | -0.243 ± 0.06
56 | L33T | -0.349 ± 0.096
57 | L33W | -0.626 ± 0.068
58 | Q34A | -0.205 ± 0.055
59 | Q34C | -0.43 ± 0.081
60 | Q34D | -0.256 ± 0.074
61 | Q34E | -0.099 ± 0.058
62 | Q34F | -0.722 ± 0.09
63 | Q34G | -0.236 ± 0.049
64 | Q34I | -0.432 ± 0.11
65 | Q34K | -0.18 ± 0.081
66 | Q34L | -0.415 ± 0.055
67 | Q34M | -0.283 ± 0.064
68 | Q34N | -0.119 ± 0.15
69 | Q34P | -0.396 ± 0.066
70 | Q34R | -0.308 ± 0.051
71 | Q34S | -0.171 ± 0.059
72 | Q34T | -0.145 ± 0.062

Row | Variant | abundance fitness
73 | Q34V | -0.413 ± 0.058
74 | Q34W | -0.624 ± 0.061
75 | Q34Y | -0.515 ± 0.058
76 | E35C | -0.052 ± 0.064
77 | E35D | 0.036 ± 0.096
78 | E35F | -0.21 ± 0.079
79 | E35G | -0.068 ± 0.049
80 | E35H | -0.055 ± 0.065
81 | E35I | -0.167 ± 0.065
82 | E35K | 0.058 ± 0.079
83 | E35L | -0.168 ± 0.054
84 | E35M | 0.009 ± 0.08
85 | E35N | -0.036 ± 0.096
86 | E35P | -0.339 ± 0.059
87 | E35R | -0.047 ± 0.049
88 | E35S | -0.018 ± 0.06
89 | E35T | 0.005 ± 0.064
90 | E35V | -0.045 ± 0.059
91 | E35Y | -0.294 ± 0.12
92 | A36C | -0.048 ± 0.071
93 | A36D | -0.371 ± 0.089
94 | A36E | -0.213 ± 0.061
95 | A36F | -0.278 ± 0.12
96 | A36G | -0.366 ± 0.05

Row | Variant | abundance fitness
97 | A36I | -0.314 ± 0.068
98 | A36K | -0.354 ± 0.07
99 | A36L | -0.622 ± 0.075
100 | A36M | -0.397 ± 0.069
101 | A36N | -0.294 ± 0.1
102 | A36P | -0.407 ± 0.063
103 | A36Q | -0.211 ± 0.06
104 | A36R | -0.213 ± 0.049
105 | A36S | -0.138 ± 0.055
106 | A36T | -0.196 ± 0.072
107 | A36V | -0.104 ± 0.053
108 | A36W | -0.422 ± 0.065
109 | A36Y | -0.231 ± 0.094
110 | L37A | -0.337 ± 0.056
111 | L37C | -0.276 ± 0.097
112 | L37D | -0.24 ± 0.064
113 | L37E | -0.157 ± 0.066
114 | L37F | -0.112 ± 0.14
115 | L37G | -0.319 ± 0.049
116 | L37H | -0.032 ± 0.11
117 | L37I | 0.223 ± 0.14
118 | L37K | -0.199 ± 0.089
119 | L37M | 0.001 ± 0.059
120 | L37N | -0.381 ± 0.083

Row | Variant | abundance fitness
121 | L37P | -0.282 ± 0.074
122 | L37Q | -0.113 ± 0.061
123 | L37R | -0.223 ± 0.048
124 | L37S | -0.346 ± 0.054
125 | L37T | -0.179 ± 0.054
126 | L37V | -0.078 ± 0.057
127 | L37W | -0.266 ± 0.059
128 | D38A | -0.198 ± 0.057
129 | D38C | -0.157 ± 0.076
130 | D38E | -0.013 ± 0.059
131 | D38F | -0.33 ± 0.079
132 | D38G | -0.281 ± 0.054
133 | D38H | -0.531 ± 0.16
134 | D38I | -0.629 ± 0.43
135 | D38K | -0.185 ± 0.072
136 | D38L | -0.284 ± 0.061
137 | D38M | -0.169 ± 0.11
138 | D38N | 0.113 ± 0.17
139 | D38P | -0.402 ± 0.12
140 | D38Q | -0.244 ± 0.089
141 | D38R | -0.217 ± 0.05
142 | D38S | -0.19 ± 0.054
143 | D38T | -0.027 ± 0.063
144 | D38V | -0.231 ± 0.055

Row | Variant | abundance fitness
145 | D38W | -0.36 ± 0.059
146 | D38Y | -0.243 ± 0.083
147 | A39D | -0.185 ± 0.14
148 | A39F | -0.159 ± 0.09
149 | A39G | -0.036 ± 0.049
150 | A39H | -0.026 ± 0.12
151 | A39I | -0.497 ± 0.18
152 | A39K | -0.046 ± 0.079
153 | A39L | -0.118 ± 0.059
154 | A39N | 0.153 ± 0.2
155 | A39P | -0.272 ± 0.12
156 | A39Q | 0.005 ± 0.11
157 | A39R | 0.017 ± 0.049
158 | A39S | -0.06 ± 0.052
159 | A39T | -0.088 ± 0.061
160 | A39V | -0.132 ± 0.059
161 | A39W | -0.263 ± 0.061
162 | A39Y | -0.367 ± 0.098
163 | E40C | -0.017 ± 0.41
164 | E40D | -0.122 ± 0.12
165 | E40G | -0.224 ± 0.063
166 | E40H | -0.545 ± 0.11
167 | E40I | -0.641 ± 0.1
